Values of other authors as cited in article PMC6503043.
Where two headings read alike, the source gives them in different places.

What was measured:
CD28 (Homo sapiens) [1] = biological target: CD28 (Homo sapiens) (UniProt P10747)
CD28 (Homo sapiens) [2] = biological target: CD28 (Homo sapiens) (UniProt P10747); remark: listed apart in the source

In the case of B7-1 (from UniProt P33681), the Kd (CD28 (Homo sapiens) [1]) is given as 5 µM.
For B7-2 (from UniProt P42081), the Kd (CD28 (Homo sapiens) [2]) is listed as 20 µM.
